Patent US7132274B2, “Method for identifying modulators of CLK-1 and UbiF activity” (priority 2003, dated 2006)
Changes are numbered by the printed parent chain. Numbers in names are those of the source. Where no limit is named, active and inactive come without a cut-off here.

Test system: E. coli JF496 (ubiF411)
Assay: JF496 complementation (growth rescue) assay
Type: cell-based
Conditions: for rescue of bacterial growth under selective condition: compared with vector pET16 control; for Activity in JF496 system: C. elegans CLK-1 variants expressed in JF496, growth rate relative to wild type CLK-1
Excerpt: JF496 is useful for complementation assays using eukaryotic clk-1. As with all other ubi mutants, JF496 has a weak growth in liquid culture, and cannot use succinate as a unique carbon source. These characteristics were used to develop a gain-of-function assay, where JF496 was transformed with a eukaryotic clk-1 (here from C. elegans) and then wild-type growth was identified. Transgenic E. coli ubiF (Kwon et al., 2000 FEMS Microbiol Lett, 186, 157–161), and clk-1 from proteobacteria (Stenmark et al., 2001 J Biol Chem, 276, 33297–33300) have been tested in JF496.
Growth conditions—For complementation assays, plasmids are freshly transformed by electroporation into E. coli JF496 ubiF(DE3) and grown overnight at 37° C. in 5 mL LB with 50 μg/mL ampicillin. The cultures are diluted 1/10 and OD600 measured. A bacterial volume corresponding to an OD600 of 0.03 in 5 mL is taken, centrifuged and resuspended in 100 μl of M9 medium. It is then added into 5 mL M9 containing 1 mM MgSO4, 20 μM CaCl2, 0.5 μg/mL thiamine, 0.12% casamino acids, 40 μg/mL D-L-methionine, 100 μg/mL L-asparagine, trace metals and 50 μg/mL ampicillin. This medium is supplemented with 0.5% glucose or 0.5% succinate. E. coli JF496 is grown at 37° C. for 8 hours. Samples (700-μL) are taken at 2-hour intervals and the OD600 is measured in order to determine the growth rate.
Growth conditions—as described above in Section 6.1
A selection of CLK-1 variants were constructed by site-directed mutagenesis and cloned into the JF496 system to assess their enzymatic activity relative to the wild type. The respective strains of JF496-clk-1 variants were cultured as described and the growth rate of each were measured. The results as shown in Table 4 indicate that certain residues and regions are not tolerant of amino acid substitution (amino acid substitution is indicated by one-letter codes).

[1] = JF496, M9 buffer containing 0.5% glucose

B1: E. coli UbiF: E. coli UbiF expressed from a plasmid in JF496 (protein)
chain: MTNQPTEIAIVGGGMVGGALALGLAQHGFAVTVIEHAEPAPFVADSQPDVRISAISAASVSLLKGLGVWDAVQAMRCHPYRRLETWEWETAHVVFDAAELKLPLLGYMVENTVLQQALWQALEAHPKVTLRVPGSLIALHRHDDLQELELKGGEVIRAKLVIGADGANSQVRQMAGIGVHAWQYAQSCMLISVQCENDPGDSTWQQFTPDGPRAFLPLFDNWASLVWYDSPARIRQLQNMNMAQLQAEIAKHFPSRLGYVTPLAAGAFPLTRRHALQYVQPGLALVGDAAHTIHPLAGQGVNLGYRDVDALIDVLVNARSYGEAWASYPVLKRYQMRRMADNFIMQSGMDLFYAGFSNNLPPLRFMRNLGLMAAERAGVLKRQALKYALGL
modifications: E. coli; ubiF wildtype allele
notes: E. coli UbiF expressed from a plasmid in JF496
rescue of bacterial growth under selective condition [1]: rescued bacterial growth

B2: C. elegans clk-1: wild-type C. elegans CLK-1 (DMQ hydroxylase) expressed from pET16 in JF496 (protein)
chain: MFRVITRGAHTAASRQALIEKIIRVDHAGELGADRIYAGQLAVLQGSSVGSVIKKMWDEEKEHLDTMERLAAKHNVPHTVFSPVFSVAAYALGVGSALLGKEGAMACTIAVEELIGQHYNDQLKELLADDPETHKELLKILTRLRDEELHHHDTGVEHDGMKAPAYSALKWIIQTGCKGAIAIAEKI
modifications: C. elegans; C. elegans CLK-1
notes: wild-type C. elegans CLK-1 (DMQ hydroxylase) expressed from pET16 in JF496
rescue of JF496 growth defect (FIG. 6, JF496 transformed with C. elegans clk-1): able to rescue the JF496 growth defect

B3: CDB 717: C. elegans CLK-1 variant, mutation Y119A (protein, UniProt P48376 9-187, looked up, variant Y119A)
NADPH-dependent …: AHTAASRQALIEKIIRVDHAGELGADRIYAGQLAVLQGSSVGSVIKKMWDEEKEHLDTMERLAAKHNVPHTVFSPVFSVAAYALGVGSALLGKEGAMACTIAVEELIGQHANDQLKELLADDPETHKELLKILTRLRDEELHHHDTGVEHDGMKAPAYSALKWIIQTGCKGAIAIAEKI
Activity in JF496 system: Inactive

B4: CDB 698: C. elegans CLK-1 variant, mutation I115H (protein, UniProt P48376 9-187, looked up, variant I115H)
NADPH-dependent …: B3 NADPH-dependent … with I107H, A111Y
Activity in JF496 system: Inactive

B5: CDB 728: C. elegans CLK-1 variant, mutation E112A (protein, UniProt P48376 9-187, looked up, variant E112A)
NADPH-dependent …: B3 NADPH-dependent … with E104A, A111Y
Activity in JF496 system: Inactive

B6: CDB 700: C. elegans CLK-1 variant, mutation C107A/C177A (protein, UniProt P48376 9-187, looked up, variant C107A C177A)
NADPH-dependent …: B3 NADPH-dependent … with C99A, A111Y, C169A
Activity in JF496 system: Active

B7: CDB 724: C. elegans CLK-1 variant, mutation E62L (protein, UniProt P48376 9-187, looked up, variant E62L)
NADPH-dependent …: B3 NADPH-dependent … with E54L, A111Y
Activity in JF496 system: Active

B8: CDB 721: C. elegans CLK-1 variant, mutation Y37A (protein, UniProt P48376 9-187, looked up, variant Y37A)
NADPH-dependent …: B3 NADPH-dependent … with Y29A, A111Y
Activity in JF496 system: Active

B9: CDB 719: C. elegans CLK-1 variant, mutation H63A (protein, UniProt P48376 9-187, looked up, variant H63A)
NADPH-dependent …: B3 NADPH-dependent … with H55A, A111Y
Activity in JF496 system: Inactive

B10: CDB 707: C. elegans CLK-1 variant, mutation E147A (protein, UniProt P48376 9-187, looked up, variant E147A)
NADPH-dependent …: B3 NADPH-dependent … with A111Y, E139A
Activity in JF496 system: Active

B11: CDB 689: C. elegans CLK-1 variant, mutation C107A (protein, UniProt P48376 9-187, looked up, variant C107A)
NADPH-dependent …: B3 NADPH-dependent … with C99A, A111Y
Activity in JF496 system: Active

B12: CDB 691: C. elegans CLK-1 variant, mutation E147K (protein, UniProt P48376 9-187, looked up, variant E147K)
NADPH-dependent …: B3 NADPH-dependent … with A111Y, E139K
Activity in JF496 system: Active

B13: CDB 723: C. elegans CLK-1 variant, mutation E148K/L149N (protein, UniProt P48376 9-187, looked up, variant E148K L149N)
NADPH-dependent …: B3 NADPH-dependent … with A111Y, E140K, L141N
Activity in JF496 system: Inactive

B14: CDB 716: C. elegans CLK-1 variant, mutation H118A (protein, UniProt P48376 9-187, looked up, variant H118A)
NADPH-dependent …: B3 NADPH-dependent … with H110A, A111Y
Activity in JF496 system: Inactive

B15: CDB 690: C. elegans CLK-1 variant, mutation C177A (protein, UniProt P48376 9-187, looked up, variant C177A)
NADPH-dependent …: B3 NADPH-dependent … with A111Y, C169A
Activity in JF496 system: Active

B16: CDB 715: C. elegans CLK-1 variant, mutation H151A (protein, UniProt P48376 9-187, looked up, variant H151A)
NADPH-dependent …: B3 NADPH-dependent … with A111Y, H143A
Activity in JF496 system: Inactive

B17: CDB 726: C. elegans CLK-1 variant, mutation G32D (protein, UniProt P48376 9-187, looked up, variant G32D)
NADPH-dependent …: B3 NADPH-dependent … with G24D, A111Y
Activity in JF496 system: Inactive

B18: CDB 720: C. elegans CLK-1 variant, mutation E30A (protein, UniProt P48376 9-187, looked up, variant E30A)
NADPH-dependent …: B3 NADPH-dependent … with E22A, A111Y
Activity in JF496 system: Inactive

B19: CDB 711: C. elegans CLK-1 variant, mutation S51P (protein, UniProt P48376 9-187, looked up, variant S51P)
NADPH-dependent …: B3 NADPH-dependent … with S43P, A111Y
Activity in JF496 system: Active

B20: CDB 725: C. elegans CLK-1 variant, mutation E147A/H151Q, less active than wild type (protein, UniProt P48376 9-187, looked up, variant E147A H151Q)
NADPH-dependent …: B3 NADPH-dependent … with A111Y, E139A, H143Q
Activity in JF496 system: Partially active

B21: CDB 694: C. elegans CLK-1 variant, mutation E148K (protein, UniProt P48376 9-187, looked up, variant E148K)
NADPH-dependent …: B3 NADPH-dependent … with A111Y, E140K
Activity in JF496 system: Inactive

B22: CDB 699: C. elegans CLK-1 variant, mutation E148A (protein, UniProt P48376 9-187, looked up, variant E148A)
NADPH-dependent …: B3 NADPH-dependent … with A111Y, E140A
Activity in JF496 system: Inactive

B23: CDB 709: C. elegans CLK-1 variant, mutation Q174A (protein, UniProt P48376 9-187, looked up, variant Q174A)
NADPH-dependent …: B3 NADPH-dependent … with A111Y, Q166A
Activity in JF496 system: Active

B24: CDB 710: C. elegans CLK-1 variant, mutation Y90G (protein, UniProt P48376 9-187, looked up, variant Y90G)
NADPH-dependent …: B3 NADPH-dependent … with Y82G, A111Y
Activity in JF496 system: Active

B25: hclk-1: human clk-1 cDNA expressed in JF496 (protein, listed as Homo sapiens)
chain: MSCAGAAAAPRLWRLRPGARRSLSAYGRRTSVRFRSSGMTLDNISRAAVDRIIRVDHAGEYGANRIYAGQMAVLGRTSVGPVIQKMWDQEKDHLKKFNELMVTFRVRPTVLMPLWNVLGFALGAGTALLGKEGAMACTVAVEESIAHHYNNQIRTLMEEDPEKYEELLQLIKKFRDEELEHHDIGLDHDAELAPAYAVLKSIIQAGCRVAIYLSERL
modifications: Human CLK-1
notes: human clk-1 cDNA expressed in JF496
rescuing capacity [1]: lower than that of mclk-1 or C. elegans clk-1
rescue of bacterial growth under selective condition [1]: rescues bacterial growth

B26: mclk-1: mouse clk-1 cDNA expressed in JF496 (protein, listed as Mus musculus)
chain: MSAAGAIAAASVGRLRTGVRRPFSEYGRGLIIRCHSSGMTLDNINRAAVDRIIRVDHAGEYGANRIYAGQMAVLGRTSVGPVIQKMWDQEKNHLKKFNELMIAFRVRPTVLMPLWNVAGFALGAGTALLGKEGAMACTVAVEESIANHYNNQIRMLMEEDPEKYEELLQVIKQFRDEELEHHDTGLDHDAELAPAYALLKRIIQAGCSAAIYLSERF
modifications: Mouse CLK-1
notes: mouse clk-1 cDNA expressed in JF496
rescue of bacterial growth under selective condition [1]: rescues bacterial growth
